Source: the DeepSol protein solubility set

Test: soluble on expression in E. coli; label from the status in PepcDB or PDB records

| Sequence | soluble on expression in E. coli |
| --- | --- |
| MKEDEVNRCQIQNWYPRFKSLTIKTKFHKLPESFINYLIDDSGPFLLPHSVTNEDAMPNRVHNFEEEDDFQVPEEASDDEPLNRPSFPELEIEIRESIETLGGTIIPKLNWSSPKDAAWISPSQNLSCTCFNEIALLFRSSDSLTHDLFNAYDSCSDKVSSRPESFYLALRKWYPSLKPEMEFRCFVKSNELVGICQREVTTFYPVLLNEKDLLKGLIEEFFDDKIRFEFESENYTFDVYVTKERRVKLIDFNTWCGSTLPLMYTWEELEKIHGECDELELRIVESRLSVLPGLKTAVPYDYLDVSAGSGWAQVLKIVEEEFQKDDQSSDEVA | soluble |
| MKEFIIKANKAVTNGEINLKDLPGSSGRLDLLCRCVNSAFFLSHDMRRDTIFYSVNYGSPNPPVALKFVGSELKRVSPDERSIALFIKKALEKDASELWKESTSGIYSSKREFRDIILEKKNEGKRIFYLHLNGKPLEDFEFKNQDDEDFLFVLGDHIGIGDEDEEFLEEIGAEKISLSPLELHADHCIILVHNILDRLK | not soluble |
| MKEFWVWVEPFDRKIVSVALEAGANAVVIPEKGRVEEVKKVGRITVIAPDGDLKLGEDVVYVLIKGKEDEERAAKYPPNVKVIVETTDWTVIPLENLIAQREELYAVVKNAQEAEVALQTLEKGVKGVVLKSRDINEIKKVGQIVSEHEEKLELVTIKITKILPLGLGDRVCVDTISLLHRGEGMLVGNSSGGMFLVHAETEENPYVAARPFRVNAGAVHMYIRVPNNRTKYLCELKAGDKVMVYDYKGRGRVTYVGRAKVERRPMLLIEGRYENKKLSCILQNAETIRLTKPDGTPISVSELKEGDEVLGYVEEAGRHFGMKVEETIIEKLEHHHHHH | soluble |
| MKEIIFDDIGSYPLPEGVSREWVQNAFKTRAEDEKLFTVINDAFQQKIDAGVEVPTYPQYQDMNEQFLKVIRDSNCTDSPFEVKLECARIEELEAIETVAKAYKEKFGETLKVRICVTGPTELYLKEFGGTRYTDIYTLFAKSINRFVRNSMKSAKHFKIATVSIDEPSIGLNPELAFDENDVISALTEASKAASKWGADVEIHLHSPLYYNYACETTTINVIGVESAGTPSYLELIDKKMLEDTDSFLRIGIARTDIFSLAGILNEKYCTNIWKDQQYIPEIVSQLETPEVIEKRLKLAYRRFGSLIKYVGPDCGLGSWPNQRIAFILLSNVAQGIKNFRENLLEHHHHHH | soluble |
| MKEIILLVFLSRKEQTNRSANIFSSVLKGFEAQTIVYSLSYQKFYSNRKNKHKDETILVTAIYRCRRNPHGMQLKQCSPSVGSGAKTRTSGRLRP | not soluble |
| MKEIKFLHIADLHLDSPFIGLSTLPQPLFSAVQESTFQSLERIITIAIKEAVEFVLIAGDIYDSEDQSVRAQARFSKEMKRLEQAGIKAFIIHGNHDFIEKHKEKLQLPGNVHVFSEQVEMAAMETKNGAIVHIYGFSYGERHIRASRVNEYNKQGEADFHIGLLHGSELSSSEDHDVYAPFRIQEITKKGFDYWALGHIHKRQLLAESPSVYYPGNIQGRNRKESGEKGASIVTLSASNTTIDFIATSPIIWEEVIITLPENSEINTFYREITKLLATYQGQSNSFFLHVIVQMANKQKINTTDWLQMLQEETDLTGSTFIWVHKLTIELTNQSDLKNWHEQHLASKEITQAFEKLQDESAFYQTVEALYFESGVSRYLDDLSEEDRQLMLDAALTELGTVLKEVEGDEK | not soluble |
| MKEIYLPLHHGKAPHWLLSRMKKLAKPIVKLIVLEYGEREFLERLSNPIFFQSLSNVLGFDWNSSGVTTVLTGVLKAVINNEEFDIRIAGGKGGNALKTPEEIMNYSEQIGADGEKLVEFSRLAAKADNAALIDGYSLYHHAVIFTPRYFTVIQQGMNETERMARRYHWNVYSSVPELENVHEGIITERRENEVVNMLSDISRDAKRLCVDIVRDGSFRRDYERMISVLRWRKGLRVPKKLDWKVVERAYNLQPERFEELLLIRGFGRETIRALALVAEIIYNTEYDKTDPAKYCFAVGGKDGVPFPVRRDIYDEIIEFMRETVKQAEIGDFEKKKMLERLSRYGCDCQERRD | soluble |
| MKERIVGQSGELFCFGQMPVWKVENLPEVLLSGYSSEEGEWVCLNVLQGDVEVRAPDGSAEVWSADGGDCVFAPQQVFSVKPKTDDAEIRLSLYCAAADYFHKKYGMSATHSAVAAARDTVPAGRALDMGCGQGRNALFLGLKGFEVTAVDHNPAALANVAELAEAEGLNVRTLEYDLNAAALQGEFDYIVATVVLMFLMPQRVPDVIADMQAHTAAGGYNLIVSAMDTADFPCPMPFPFKFKEGELKDYYRDWELVEYKEELGSMHAKDENGNPIRFKFVTMLAKKPELEHHHHHH | not soluble |
| MKESMSSVDIKYITEELKDMIVGSRVEKIYHEGNEIRFKLHKTGVGRVDLLIEAGKRIHITTYVKENLQPTSFAMLLRKYLSGKFLEDIRQYEFDRVVILSFGEYFLIAELFGRGNIIFVTKDWEIIGALRYEEFKDRAIKPKIKYVFPPSRANPLKVSFEEFKEIILNSQGTEIVRALAKNFSIGGLYSEETLLRAKIDKDRKVDELSEEELRLVYDTLLTVLNDEKKPNIVYNKEGVMVDVVPIDLQWYREYTKRYYESFSEALDEYFGKLTIEKARLEKTKQLEERRKALEISLRRIEEQIKGFEKEAMTNQEKGDALYAHYSIVNEILRVISSALKQYGVEEVKKRIEEGKKAGYPWAKMIIDVTDNKVTLNLDGIKVSLDVEKSLEENAELYYERAKKAKKKLEGAKIAYEETKRKLIELEKEIERESKEINIKKITRKKKKWFE | not soluble |
| MKETIMNQKLTKRQAEVHTGRKGTAHRKKVVHTTAEDKKFQFSLKKLGVNNIPGIEEVNMFTHQGTVIHFNNPEVQASLAANTFTMTGHAETKQLTEMLLSIDHKPVLQMV | soluble |
| MKEVMLFPLTSVVLPEGKMNLRIFEPRYKRMVKECSLQNVGFGVCLVGSEGDPKDVGNVSSIGTLVRIVDFETLSDGLLGITVAGEKRFVIKRVRADSDGLRHAEVEWLDNWQTPSQQLDFGYLSQQLAQVYEQFPQLGTLYQHRFYDDPIWVTQRWLELLPLDSHLFESLVGAQDCRPALRFLNQAIEAPSNKEARILEHHHHHH | soluble |
| MKEVYRYAYHYAGRPVGEGRLEVERRRGGVRASLQAEFLPPLPPGRQRWQTELDAEGFSLRFQERVEGKEVRVFAVERLEEEGVVLVSQGKESLAYPYLAPYHDPLSLFLALPGLALEPGEVVRFPMPGGRVYVERLPDVEVEGRARRQYRLRPGLSLVQVEEGRLVRVAQQVGRHVFEAVLLEAEGP | soluble |
| MKFDTIINQPVIETERFDLRPLRKSDMGLIEHYARDERVARMTTSIPHPLPPGMAEGFVARAMSEERTEDVWAMDATRDGGPELMGLISLERMDRNQSEVGYWVAPVFWNTGIASMAVEALVNANPLGNATMFASVFQDNPASARVLTHCGFQYLGDAESYSVARDAAVPTWTYSRKL | not soluble |
| MKFFIAFACLLAVALANEDANVLRAEQQVNVDGFAYAVELDNSVNVQQKGDLNGEEWVVKGSQSWTSPENVPVSIQYIADANGYQVVSANPPLPTPPPIPEAIQRSLEYIAAHPPSQLEHHHHHH | not soluble |
| MKFFSNPKQEAQTHFHLHKDKETMSVSAIFGTGIVTVAASPVLRQFQVPKLGNGGGLGMVIECSSRPQKKSTAHHRKTRPKKTQPWDIKRKPTVYAPLPPLPAEWSPFTLASDDGGAATAAGDLVSGAA | not soluble |
| MKFIRRCMMETRYTVRQAVEMTGVKSYVLRYWEEELELQIHRNELGHRYYTGYDIQLFLNIKELKKRGLQLRAIKNLIPQITASMTGFGESASTLLEGEVIDHAEVKTDRDLKEKISKKDEGKNDKILEFQAILERLITQELKAQNEDEERCRSLDYAIRRQQLARKEAAAAAEKKSGRRRRDK | not soluble |
| MKFKNILFDFDDTLVDFYDAEKKAFYNLAQKYNHQPTQQDFEHFKKVNQAHWEAFQQNKLTKDEVLSQRFINYFNDYQIHVNGKEADKCFRAELAMAPVKLFDHTLEVIQQLKLNHSLYIVTNGVTETQLRRIAQTQFNEIFQDVFISEKAGFQKPMTEFFDFVFEHIGENNRNQTLIVGDSLTSDILGGKNANISTCWFNIRQKENHTSIQPDYIINDLSEMIRIVE | not soluble |
